Measured values reported in paper PMC9482650, “Quantitative fragmentomics allow affinity mapping of interactomes” (Nature Communications, 2022).
Values belong to the binder of their own block, whether it stands above or below them.

Experiments:
Test in all cases: holdup assay
Set-up in all cases: key: below the threshold = too weak to quantify, mostly under pKd 3.1 to 4
[1] = target: T1, TJP3_3, O95049
T1 sequence (O95049 375-456, limits assumed, looked up): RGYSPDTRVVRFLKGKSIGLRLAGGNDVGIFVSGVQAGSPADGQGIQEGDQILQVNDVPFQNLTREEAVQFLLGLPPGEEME

[2] = target: T2, LNX2_3, Q8N448
T2 sequence (Q8N448 463-564, limits assumed, looked up): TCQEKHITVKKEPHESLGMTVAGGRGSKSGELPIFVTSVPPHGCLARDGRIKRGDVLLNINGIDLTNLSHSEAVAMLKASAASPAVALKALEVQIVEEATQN

[3] = target: LNX1_1, Q8TBB1
LNX1_1, Q8TBB1, sequence (Q8TBB1 261-371): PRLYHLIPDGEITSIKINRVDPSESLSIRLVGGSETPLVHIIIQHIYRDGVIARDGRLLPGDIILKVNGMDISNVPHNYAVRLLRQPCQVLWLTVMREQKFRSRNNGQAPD

[4] = target: T3, NHERF3_3, Q5T2W1
T3 sequence (Q5T2W1 238-333, limits assumed, looked up): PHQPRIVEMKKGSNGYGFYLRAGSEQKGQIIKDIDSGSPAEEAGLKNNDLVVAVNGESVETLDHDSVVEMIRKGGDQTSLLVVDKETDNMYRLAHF

[5] = target: CASK, O14936
CASK, O14936, sequence (O14936 487-570): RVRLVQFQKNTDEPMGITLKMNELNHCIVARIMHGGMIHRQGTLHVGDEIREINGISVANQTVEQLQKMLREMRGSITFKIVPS

[6] = target: DLG1_3, Q12959
DLG1_3, Q12959, sequence (Q12959 457-571): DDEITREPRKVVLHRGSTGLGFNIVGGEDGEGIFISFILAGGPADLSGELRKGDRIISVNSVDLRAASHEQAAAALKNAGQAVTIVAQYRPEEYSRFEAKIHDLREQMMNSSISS

[7] = target: TJP2_1, Q9UDY2
TJP2_1, Q9UDY2, sequence (Q9UDY2 24-128): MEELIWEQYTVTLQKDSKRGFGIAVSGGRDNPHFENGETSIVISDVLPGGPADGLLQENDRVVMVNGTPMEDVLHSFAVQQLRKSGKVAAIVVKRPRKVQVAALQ

[8] = target: T4, PDZD7_3, Q9H5P4
T4 sequence (Q9H5P4 857-944, limits assumed, looked up): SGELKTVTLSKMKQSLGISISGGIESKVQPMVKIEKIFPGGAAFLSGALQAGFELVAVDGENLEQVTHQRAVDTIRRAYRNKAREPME

[9] = target: DLG4_1, P78352
DLG4_1, P78352, sequence (P78352 62-152): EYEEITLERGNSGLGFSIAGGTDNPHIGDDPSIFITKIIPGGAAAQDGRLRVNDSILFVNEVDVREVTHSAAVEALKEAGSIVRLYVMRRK

[10] = target: GOPC, Q9HD26
[11] = target: FRMPD3, Q5JV73
FRMPD3, Q5JV73, sequence (Q5JV73 12-100): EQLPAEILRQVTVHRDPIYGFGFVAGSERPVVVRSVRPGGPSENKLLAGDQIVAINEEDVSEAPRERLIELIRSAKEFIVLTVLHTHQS

[12] = target: T5, NHERF3_1, Q5T2W1
T5 sequence (Q5T2W1 4-100, limits assumed, looked up): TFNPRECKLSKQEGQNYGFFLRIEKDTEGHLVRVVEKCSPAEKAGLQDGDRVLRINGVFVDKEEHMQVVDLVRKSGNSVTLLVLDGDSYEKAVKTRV

[13] = target: GRIP2_6, Q9C0E4
GRIP2_6, Q9C0E4, sequence (Q9C0E4 648-740): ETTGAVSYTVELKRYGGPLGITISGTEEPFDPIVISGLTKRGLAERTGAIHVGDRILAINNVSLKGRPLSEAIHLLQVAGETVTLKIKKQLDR

[14] = target: T6, SHANK1, Q9Y566
T6 sequence (Q9Y566 658-767, limits assumed, looked up): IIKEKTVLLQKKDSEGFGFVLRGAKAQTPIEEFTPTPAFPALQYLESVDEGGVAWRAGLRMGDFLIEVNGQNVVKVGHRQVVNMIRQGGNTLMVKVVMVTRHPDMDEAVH

[15] = target: T7, APBA1_2, Q02410
T7 sequence (Q02410 742-832, limits assumed, looked up): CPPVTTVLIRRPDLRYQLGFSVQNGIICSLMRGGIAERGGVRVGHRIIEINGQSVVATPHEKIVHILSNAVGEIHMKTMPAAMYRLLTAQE

[16] = target: T8, APBA3_1, O96018
T8 sequence (O96018 389-490, limits assumed, looked up): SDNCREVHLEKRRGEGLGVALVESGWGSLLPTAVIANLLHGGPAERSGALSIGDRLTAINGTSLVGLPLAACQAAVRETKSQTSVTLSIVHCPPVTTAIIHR

[17] = target: NHERF4_2, Q86UT5
NHERF4_2, Q86UT5, sequence (Q86UT5 220-308): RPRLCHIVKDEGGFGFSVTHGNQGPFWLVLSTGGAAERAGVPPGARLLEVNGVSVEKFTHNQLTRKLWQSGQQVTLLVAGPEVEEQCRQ

[18] = target: T9, RHPN1, Q8TCX5
T9 sequence (Q8TCX5 508-602, limits assumed, looked up): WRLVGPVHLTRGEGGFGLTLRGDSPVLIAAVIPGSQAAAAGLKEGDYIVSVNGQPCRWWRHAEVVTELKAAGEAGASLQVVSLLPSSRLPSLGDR

[19] = target: Inadl_8, Q8NI35
Inadl_8, Q8NI35, sequence (Q8NI35 1425-1530): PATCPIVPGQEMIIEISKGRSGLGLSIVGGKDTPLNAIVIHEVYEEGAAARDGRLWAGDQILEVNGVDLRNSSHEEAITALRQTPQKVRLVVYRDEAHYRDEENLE

[20] = target: NHERF2_2, Q15599
NHERF2_2, Q15599, sequence (Q15599 142-238): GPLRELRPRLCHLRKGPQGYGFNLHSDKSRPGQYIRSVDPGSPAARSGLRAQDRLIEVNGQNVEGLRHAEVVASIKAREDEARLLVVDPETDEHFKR

[21] = target: LIMK2, P53671
LIMK2, P53671, sequence (P53671 143-248): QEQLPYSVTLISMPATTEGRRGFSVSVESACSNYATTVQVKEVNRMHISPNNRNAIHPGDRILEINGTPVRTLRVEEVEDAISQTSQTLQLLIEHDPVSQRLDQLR

[22] = target: GRIP2_3, Q9C0E4
GRIP2_3, Q9C0E4, sequence (Q9C0E4 238-339): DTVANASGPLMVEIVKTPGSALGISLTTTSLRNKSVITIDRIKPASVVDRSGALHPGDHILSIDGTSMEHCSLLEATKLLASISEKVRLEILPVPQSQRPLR

[23] = target: T10, DLG3_3, Q92796
T10 sequence (Q92796 374-475, limits assumed, looked up): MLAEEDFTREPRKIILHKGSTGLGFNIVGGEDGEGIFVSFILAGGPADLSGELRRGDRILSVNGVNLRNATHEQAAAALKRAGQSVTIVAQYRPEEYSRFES

[24] = target: FRMPD2_3, Q68DX3
FRMPD2_3, Q68DX3, sequence (Q68DX3 1073-1166): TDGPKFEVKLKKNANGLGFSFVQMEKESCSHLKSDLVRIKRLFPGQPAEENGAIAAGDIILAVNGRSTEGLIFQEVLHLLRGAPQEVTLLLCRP

[25] = target: T11, LRRC7, Q96NW7
T11 sequence (Q96NW7 1440-1537, limits assumed, looked up): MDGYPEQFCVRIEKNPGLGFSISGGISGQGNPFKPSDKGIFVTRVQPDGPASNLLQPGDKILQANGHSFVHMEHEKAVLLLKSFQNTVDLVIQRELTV

[26] = target: Inadl_4, Q8NI35
Inadl_4, Q8NI35, sequence (Q8NI35 547-651): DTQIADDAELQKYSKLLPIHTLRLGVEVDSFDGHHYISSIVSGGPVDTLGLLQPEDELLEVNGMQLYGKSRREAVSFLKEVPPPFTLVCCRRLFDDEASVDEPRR

[27] = target: LAP2, Q96RT1
LAP2, Q96RT1, sequence (Q96RT1 other isoform, or with tags, fused parts or gaps): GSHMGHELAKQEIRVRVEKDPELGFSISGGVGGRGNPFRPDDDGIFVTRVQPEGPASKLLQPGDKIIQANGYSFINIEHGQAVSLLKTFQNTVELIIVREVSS

[28] = plain residues with an end cap or a label only (N-terminal biotin on a linker: ttds)
[29] = plain residues with an end cap or a label only (N-terminal biotin on a linker: ado-ado)

pKd [1, 28]: below the threshold
pKd [2, 28]: below the threshold
pKd [3, 28]: below the threshold
pKd [4, 28]: 3.67
pKd [5, 28]: 3.47
pKd [6, 28]: 3.71
pKd [7, 28]: below the threshold
pKd [8, 28]: 5.1
pKd [9, 28]: 3.82
pKd [10, 28]: 4.24
pKd [11, 28]: below the threshold
pKd [12, 28]: 4.03
pKd [13, 28]: 3.49
pKd [14, 28]: 4.35
pKd [15, 28]: 4.02
pKd [16, 28]: below the threshold
pKd [17, 28]: below the threshold
pKd [18, 28]: 4.36
pKd [19, 28]: 4.46
pKd [20, 28]: 4.29
pKd [21, 28]: below the threshold
pKd [22, 28]: 3.56
pKd [23, 28]: 3.71
pKd [24, 28]: below the threshold
pKd [25, 28]: below the threshold
pKd [26, 28]: below the threshold
pKd [27, 28]: 3.82
B1: PTEN, P60484 (peptide)
chain: DEDQHTQITKV

pKd [1, 28]: 3.59
pKd [2, 28]: 3.71
pKd [3, 28]: 3.76
pKd [4, 28]: 3.61
pKd [5, 28]: below the threshold
pKd [6, 28]: 3.63
pKd [7, 28]: below the threshold
pKd [8, 28]: 4.93
pKd [9, 28]: 3.68
pKd [10, 28]: 4.96
pKd [11, 28]: below the threshold
pKd [12, 28]: 4.03
pKd [13, 28]: below the threshold
pKd [14, 28]: 4.17
pKd [15, 28]: below the threshold
pKd [16, 28]: below the threshold
pKd [17, 28]: below the threshold
pKd [18, 28]: 4.26
pKd [19, 28]: below the threshold
pKd [20, 28]: 3.97
pKd [21, 28]: below the threshold
pKd [22, 28]: below the threshold
pKd [23, 28]: below the threshold
pKd [24, 28]: below the threshold
pKd [25, 28]: 3.55
pKd [26, 28]: below the threshold
pKd [27, 28]: below the threshold
B2: RPS6KA1, Q15418 (peptide)
chain: RRVRKLPSTTL

pKd [1, 29]: below the threshold
pKd [2, 29]: 3.51
pKd [3, 29]: 3.6
pKd [4, 29]: below the threshold
pKd [5, 29]: below the threshold
pKd [6, 29]: 3.8
pKd [7, 29]: below the threshold
pKd [8, 29]: below the threshold
pKd [9, 29]: 3.57
pKd [10, 29]: 3.52
pKd [11, 29]: below the threshold
pKd [12, 29]: 3.75
pKd [13, 29]: below the threshold
pKd [14, 29]: below the threshold
pKd [15, 29]: 3.66
pKd [16, 29]: below the threshold
pKd [17, 29]: below the threshold
pKd [18, 29]: 3.79
pKd [19, 29]: below the threshold
pKd [20, 29]: 3.74
pKd [21, 29]: below the threshold
pKd [22, 29]: 3.51
pKd [23, 29]: below the threshold
pKd [24, 29]: below the threshold
pKd [25, 29]: below the threshold
pKd [26, 29]: below the threshold
pKd [27, 29]: below the threshold
B3: RCN1, Q15293 (peptide)
chain: EDLTKNHDEL

pKd [1, 28]: 3.57
pKd [2, 28]: below the threshold
pKd [3, 28]: 3.6
pKd [4, 28]: below the threshold
pKd [5, 28]: below the threshold
pKd [6, 28]: below the threshold
pKd [7, 28]: 3.71
pKd [8, 28]: below the threshold
pKd [9, 28]: below the threshold
pKd [10, 28]: below the threshold
pKd [11, 28]: below the threshold
pKd [12, 28]: below the threshold
pKd [13, 28]: below the threshold
pKd [14, 28]: 4.17
pKd [15, 28]: 3.62
pKd [16, 28]: below the threshold
pKd [17, 28]: below the threshold
pKd [18, 28]: below the threshold
pKd [19, 28]: 3.78
pKd [20, 28]: below the threshold
pKd [21, 28]: below the threshold
pKd [22, 28]: below the threshold
pKd [23, 28]: below the threshold
pKd [24, 28]: below the threshold
pKd [25, 28]: below the threshold
pKd [26, 28]: below the threshold
pKd [27, 28]: below the threshold
B4: MAP2K2, P36507 (peptide)
chain: QPGTPTRTAV

pKd [1, 28]: 3.7
pKd [2, 28]: below the threshold
pKd [3, 28]: 3.52
pKd [4, 28]: 3.54
pKd [5, 28]: below the threshold
pKd [6, 28]: below the threshold
pKd [7, 28]: below the threshold
pKd [8, 28]: 4.27
pKd [9, 28]: 3.98
pKd [10, 28]: below the threshold
pKd [11, 28]: below the threshold
pKd [12, 28]: 3.74
pKd [13, 28]: below the threshold
pKd [14, 28]: below the threshold
pKd [15, 28]: below the threshold
pKd [16, 28]: below the threshold
pKd [17, 28]: below the threshold
pKd [18, 28]: 4.09
pKd [19, 28]: below the threshold
pKd [20, 28]: below the threshold
pKd [21, 28]: 3.7
pKd [22, 28]: below the threshold
pKd [23, 28]: below the threshold
pKd [24, 28]: 3.57
pKd [25, 28]: below the threshold
pKd [26, 28]: below the threshold
pKd [27, 28]: 3.48
B5: MAS1, P04201 (peptide)
chain: CNTVTVETVV

pKd [1, 28]: below the threshold
pKd [2, 28]: below the threshold
pKd [3, 28]: below the threshold
pKd [4, 28]: below the threshold
pKd [5, 28]: below the threshold
pKd [6, 28]: 5.02
pKd [7, 28]: below the threshold
pKd [8, 28]: 4.62
pKd [9, 28]: 4.29
pKd [10, 28]: 4.32
pKd [11, 28]: below the threshold
pKd [12, 28]: 5.4
pKd [13, 28]: below the threshold
pKd [14, 28]: 3.81
pKd [15, 28]: 4.08
pKd [16, 28]: below the threshold
pKd [17, 28]: below the threshold
pKd [18, 28]: 5.14
pKd [19, 28]: below the threshold
pKd [20, 28]: 4.69
pKd [21, 28]: below the threshold
pKd [22, 28]: below the threshold
pKd [23, 28]: 4.25
pKd [24, 28]: below the threshold
pKd [25, 28]: 4.31
pKd [26, 28]: below the threshold
pKd [27, 28]: 3.92
B6: SLCO1C1, Q9NYB5 (peptide)
chain: NYWPGKETQL
